Test results published in the supplement of paper PMC10567573.

B1: TRIM39 (parent)
chain: ERDFPCPVCRKTSRYRSLRPNRQL

Variants of: B1
Assay: protein stability index of a GFP-peptide fusion (GPS, HEK-293T) (PSI 1-6); higher = more stable
Details: c terminus: a fixed tail appended
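Also: lentivirally expressed fusions sorted by FACS into six bins by GFP to DsRed ratio, PSI derived from sequencing read proportions per bin multiplied by bin number.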

Q: With ERDFPCPVCRMTSRYRSLRPNRQL [K11M] as the variant, how does the protein stability index read?
A: Its protein stability index is 1.65.

Q: Which protein stability index does the source give for ERDFPCPVCRWTSRYRSLRPNRQL [K11W] here?
A: The protein stability index was 2.84.

Q: For ERDFPCPVCRETSRYRSLRPNRQL [K11E], which protein stability index is on record?
A: The protein stability index was 1.17.

Q: For ERDFPCPVCRRTSRYRSLRPNRQL [K11R], which protein stability index is on record?
A: The protein stability index was 1.85.

Q: Which protein stability index does the source give for ERDFPCPVCRPTSRYRSLRPNRQL [K11P] here?
A: The protein stability index was 2.54.

Q: Which protein stability index does the source give for ERDFPCPVCRCTSRYRSLRPNRQL [K11C] here?
A: The protein stability index was 2.55.

Q: With ERDFPCPVCRDTSRYRSLRPNRQL [K11D] as the variant, how does the protein stability index read?
A: The protein stability index was 1.7.

Q: Which protein stability index does the source give for ERDFPCPVCRQTSRYRSLRPNRQL [K11Q] here?
A: Its protein stability index is 2.4.

Q: For ERDFPCPVHRKTSRYRSLRPNRQL [C9H], which protein stability index is on record?
A: Its protein stability index is 2.56.

Q: Which protein stability index does the source give for ERDFPCPVNRKTSRYRSLRPNRQL [C9N] here?
A: Its protein stability index is 2.78.

Q: With ERDFPCPVDRKTSRYRSLRPNRQL [C9D] as the variant, how does the protein stability index read?
A: Its protein stability index is 4.01.

Q: Which protein stability index does the source give for ERDFPCPVSRKTSRYRSLRPNRQL [C9S] here?
A: The protein stability index was 3.77.

Q: Which protein stability index does the source give for ERDFPCPVYRKTSRYRSLRPNRQL [C9Y] here?
A: The protein stability index was 3.62.

Q: Which protein stability index does the source give for ERDFPCPVCAKTSRYRSLRPNRQL [R10A] here?
A: Its protein stability index is 1.88.

Q: For ERDFPCPVCGKTSRYRSLRPNRQL [R10G], which protein stability index is on record?
A: Its protein stability index is 4.1.

Q: With ERDFPCPVCNKTSRYRSLRPNRQL [R10N] as the variant, how does the protein stability index read?
A: The protein stability index was 2.22.

Q: With ERDFPCPVCHKTSRYRSLRPNRQL [R10H] as the variant, how does the protein stability index read?
A: The protein stability index was 2.53.

Q: For ERDFPCPVCSKTSRYRSLRPNRQL [R10S], which protein stability index is on record?
A: Its protein stability index is 1.15.

Q: For ERDFPCPVCYKTSRYRSLRPNRQL [R10Y], which protein stability index is on record?
A: The protein stability index was 2.03.

Q: With ERDFPCPVCRKTSRYRSLRPNQQL [R22Q] as the variant, how does the protein stability index read?
A: Its protein stability index is 1.95.

Q: Which protein stability index does the source give for ERDFPCPVCRKTSRYRSLRPNKQL [R22K] here?
A: Its protein stability index is 2.66.

Q: Which protein stability index does the source give for ERDFPCPVCRKTSRYRSLRPNHQL [R22H] here?
A: Its protein stability index is 1.56.

Q: For ERDFPCPVCRKTSRYRSLRPNNQL [R22N], which protein stability index is on record?
A: Its protein stability index is 1.6.

Q: Which protein stability index does the source give for ERDFPCPVCRKTSRYRSLRPNYQL [R22Y] here?
A: Its protein stability index is 2.23.

Q: For ERDFPCPVCRKTSRYRSLRPNSQL [R22S], which protein stability index is on record?
A: The protein stability index was 1.5.

Q: With ERDFPCPVCRKTSRYRSLRPNFQL [R22F] as the variant, how does the protein stability index read?
A: The protein stability index was 1.79.

Q: Which protein stability index does the source give for ERDFPCPVCRKTSRYRSLRPNRLL [Q23L] here?
A: Its protein stability index is 1.87.

Q: For ERDFPCPVCRKTSRYRSLRPNRIL [Q23I], which protein stability index is on record?
A: Its protein stability index is 1.68.

Q: For ERDFPCPVCRKTSRYRSLRPNRML [Q23M], which protein stability index is on record?
A: The protein stability index was 2.27.

Q: With ERDFPCPVCRKTSRYRSLRPNRAL [Q23A] as the variant, how does the protein stability index read?
A: The protein stability index was 1.33.

Q: For ERDFPCPVCRKTSRYRSLRPNRPL [Q23P], which protein stability index is on record?
A: Its protein stability index is 1.47.

Q: With ERDFPCPVCRKTSRYRSLRPNRDL [Q23D] as the variant, how does the protein stability index read?
A: The protein stability index was 2.34.

Q: With ERDFPCPVCRKTSRYRSLRPNRCL [Q23C] as the variant, how does the protein stability index read?
A: The protein stability index was 1.8.

Q: With ERDFPCPVCRKTSRYRSLRPNRYL [Q23Y] as the variant, how does the protein stability index read?
A: Its protein stability index is 1.66.

Q: Which protein stability index does the source give for ERDFPCPVCRKTSRYRSLRPNRNL [Q23N] here?
A: Its protein stability index is 2.77.

Q: With ERDFPCPVCRKTSRYRSLRPNRGL [Q23G] as the variant, how does the protein stability index read?
A: The protein stability index was 2.46.

Q: For ERDFPCPVCRKTSRYRSLRPNRTL [Q23T], which protein stability index is on record?
A: Its protein stability index is 2.9.

Q: With ERDFPCPVCRKTSRYRSLRINRQL [P20I] as the variant, how does the protein stability index read?
A: Its protein stability index is 1.6.

Q: Which protein stability index does the source give for ERDFPCPVCRKTSRYRSLRSNRQL [P20S] here?
A: The protein stability index was 1.76.

Q: For ERDFPCPVCRKTSRYRSLRANRQL [P20A], which protein stability index is on record?
A: The protein stability index was 2.22.

Q: With ERDFPCPVCRKTSRYRSLRCNRQL [P20C] as the variant, how does the protein stability index read?
A: The protein stability index was 2.44.

Q: Which protein stability index does the source give for ERDFPCPVCRKTSRYRSLRVNRQL [P20V] here?
A: Its protein stability index is 2.07.

Q: For ERDFPCPVCRKTSRYRSLRENRQL [P20E], which protein stability index is on record?
A: Its protein stability index is 2.04.

Q: For ERDFPCPVCRKTSRYRSLRFNRQL [P20F], which protein stability index is on record?
A: Its protein stability index is 3.1.

Q: For ERNFPCPVCRKTSRYRSLRPNRQL [D3N], which protein stability index is on record?
A: Its protein stability index is 2.5.

Q: For ERLFPCPVCRKTSRYRSLRPNRQL [D3L], which protein stability index is on record?
A: The protein stability index was 1.96.

Q: Which protein stability index does the source give for ERMFPCPVCRKTSRYRSLRPNRQL [D3M] here?
A: The protein stability index was 2.56.

Q: For ERKFPCPVCRKTSRYRSLRPNRQL [D3K], which protein stability index is on record?
A: The protein stability index was 2.64.

Q: With ERGFPCPVCRKTSRYRSLRPNRQL [D3G] as the variant, how does the protein stability index read?
A: The protein stability index was 1.6.

Q: For ERTFPCPVCRKTSRYRSLRPNRQL [D3T], which protein stability index is on record?
A: The protein stability index was 1.84.

Q: Which protein stability index does the source give for EMDFPCPVCRKTSRYRSLRPNRQL [R2M] here?
A: Its protein stability index is 2.28.

Q: With ESDFPCPVCRKTSRYRSLRPNRQL [R2S] as the variant, how does the protein stability index read?
A: The protein stability index was 1.9.

Q: Which protein stability index does the source give for ELDFPCPVCRKTSRYRSLRPNRQL [R2L] here?
A: The protein stability index was 1.63.

Q: Which protein stability index does the source give for EVDFPCPVCRKTSRYRSLRPNRQL [R2V] here?
A: The protein stability index was 3.06.

Q: With EGDFPCPVCRKTSRYRSLRPNRQL [R2G] as the variant, how does the protein stability index read?
A: Its protein stability index is 1.57.

Q: With ECDFPCPVCRKTSRYRSLRPNRQL [R2C] as the variant, how does the protein stability index read?
A: Its protein stability index is 2.01.

Q: With ETDFPCPVCRKTSRYRSLRPNRQL [R2T] as the variant, how does the protein stability index read?
A: The protein stability index was 1.91.

Q: Which protein stability index does the source give for EADFPCPVCRKTSRYRSLRPNRQL [R2A] here?
A: Its protein stability index is 2.13.

Q: With ERDFPCPVCRKTSRTRSLRPNRQL [Y15T] as the variant, how does the protein stability index read?
A: Its protein stability index is 1.9.

Q: For ERDFPCPVCRKTSRHRSLRPNRQL [Y15H], which protein stability index is on record?
A: Its protein stability index is 2.68.

Q: With ERDFPCPVCRKTSRVRSLRPNRQL [Y15V] as the variant, how does the protein stability index read?
A: The protein stability index was 1.64.

Q: For ERDFPCPVCRKTSRCRSLRPNRQL [Y15C], which protein stability index is on record?
A: The protein stability index was 2.24.

Q: Which protein stability index does the source give for ERDFPCPVCRKTSRERSLRPNRQL [Y15E] here?
A: The protein stability index was 2.19.

Q: Which protein stability index does the source give for ERDFPCPVCRKTSRRRSLRPNRQL [Y15R] here?
A: The protein stability index was 2.65.

Q: With ERDFPCPVCRKTSRQRSLRPNRQL [Y15Q] as the variant, how does the protein stability index read?
A: The protein stability index was 2.52.

Q: Which protein stability index does the source give for ERDFPCPVCRKTSRPRSLRPNRQL [Y15P] here?
A: Its protein stability index is 2.29.

Q: Which protein stability index does the source give for ERDFPCPVCRKTSRYRSLAPNRQL [R19A] here?
A: Its protein stability index is 1.63.

Q: For ERDFPCPVCRKTSRYRSLNPNRQL [R19N], which protein stability index is on record?
A: The protein stability index was 1.78.

Q: With ERDFPCPVCRKTSRYRSLLPNRQL [R19L] as the variant, how does the protein stability index read?
A: Its protein stability index is 2.

Q: For ERDFPCPVCRKTSRYRSLPPNRQL [R19P], which protein stability index is on record?
A: The protein stability index was 1.98.

Q: For ERDFPCPVCRKTSRYRSLQPNRQL [R19Q], which protein stability index is on record?
A: Its protein stability index is 1.91.

Q: With ERDFPCPVCRKTSRYRSLIPNRQL [R19I] as the variant, how does the protein stability index read?
A: Its protein stability index is 2.1.

Q: Which protein stability index does the source give for ERDFPCPVCRKTSRYRSLYPNRQL [R19Y] here?
A: The protein stability index was 2.12.

Q: With ERDFPCPVCRKTSRYRSLWPNRQL [R19W] as the variant, how does the protein stability index read?
A: The protein stability index was 2.1.

Q: Which protein stability index does the source give for ERDFPCPVCRKTSRYRSLVPNRQL [R19V] here?
A: Its protein stability index is 1.85.

Q: Which protein stability index does the source give for ERDFPCPVCRKTSRYRSLHPNRQL [R19H] here?
A: The protein stability index was 2.08.

Q: For ERDFPCPVCRKTSRYRSLGPNRQL [R19G], which protein stability index is on record?
A: Its protein stability index is 1.89.

Q: For ERDFPCPVCRKSSRYRSLRPNRQL [T12S], which protein stability index is on record?
A: Its protein stability index is 2.17.

Q: With ERDFPCPVCRKYSRYRSLRPNRQL [T12Y] as the variant, how does the protein stability index read?
A: The protein stability index was 1.7.

Q: With ERDFPCPVCRKASRYRSLRPNRQL [T12A] as the variant, how does the protein stability index read?
A: Its protein stability index is 2.64.

Q: Which protein stability index does the source give for ERDFPCPVCRKKSRYRSLRPNRQL [T12K] here?
A: The protein stability index was 2.64.

Q: With ERDFPCPVCRKVSRYRSLRPNRQL [T12V] as the variant, how does the protein stability index read?
A: Its protein stability index is 2.02.

Q: With ERDFPCPVCRKCSRYRSLRPNRQL [T12C] as the variant, how does the protein stability index read?
A: The protein stability index was 2.

Q: For ERDFPCPVCRKISRYRSLRPNRQL [T12I], which protein stability index is on record?
A: Its protein stability index is 1.71.

Q: Which protein stability index does the source give for ERDFPCPVCRKWSRYRSLRPNRQL [T12W] here?
A: The protein stability index was 2.44.

Q: For LRDFPCPVCRKTSRYRSLRPNRQL [E1L], which protein stability index is on record?
A: Its protein stability index is 2.34.

Q: For YRDFPCPVCRKTSRYRSLRPNRQL [E1Y], which protein stability index is on record?
A: Its protein stability index is 1.66.

Q: With TRDFPCPVCRKTSRYRSLRPNRQL [E1T] as the variant, how does the protein stability index read?
A: The protein stability index was 2.71.

Q: For CRDFPCPVCRKTSRYRSLRPNRQL [E1C], which protein stability index is on record?
A: Its protein stability index is 2.2.

Q: For NRDFPCPVCRKTSRYRSLRPNRQL [E1N], which protein stability index is on record?
A: Its protein stability index is 2.01.

Q: With IRDFPCPVCRKTSRYRSLRPNRQL [E1I] as the variant, how does the protein stability index read?
A: Its protein stability index is 2.19.

Q: With KRDFPCPVCRKTSRYRSLRPNRQL [E1K] as the variant, how does the protein stability index read?
A: The protein stability index was 1.77.

Q: With RRDFPCPVCRKTSRYRSLRPNRQL [E1R] as the variant, how does the protein stability index read?
A: Its protein stability index is 2.71.

Q: For ERDFPCPVCRKTSRYVSLRPNRQL [R16V], which protein stability index is on record?
A: The protein stability index was 2.04.
